Test results from the DeepSol protein solubility set.

Test: soluble on expression in E. coli; label from the status in PepcDB or PDB records

Question: For “MGSDKIHHHHHHMSINDKEKKKLQRAILIIACEVARICKKNDIPYFINGGTQIGAVRHNGFIPWDDDFDIGFKRKDYEKFIKACDKDLNKDKFFLQTPETEEYYAFDFAKLQLKGTEIIEDFSKNVKIQHGIFVDLFPHDNIPDCKLKRKLFLFKNHLMKNILWVKCGYGEKKHKSKLSYKMVKFVSKFFSIKQIKQSRSKLLDKYNNTKTTQCIISDYPNDLIMNSWLDDLQLFRFEEVEFYGIKQYDAYLKSLYGDYMSLPPESERIVHSNYKIDFGLYDGLLEDMLYGNNI”, which “soluble on expression in E. coli” value is on record?
Answer: not soluble

Question: For “MGSDKIHHHHHHMTDYFSYLGLQPSREELIQRFGLELDKLMTLDLNLTGRPSYLYSRERNGSGEASSTAFAQLLLDSLASKDVSILVTGWPVRSSIDVSIGEADGPIGAAAIARALHMTTGAVSLAMAPAPLAAQVAAAFRSAGATIIDFDAFERLSKGNERLFGVAIVGLDVDCDLSNYFAELLQNVKPKTVIAIEHYGFSAEGKPYHGTGNVVEPGTALTHPLFDQAMAEGLICGSCVDNPNEVGTSRLHDAGVKHPPMRNDFANLLVGSSANSAAFALCAALAGLSATPTAAFPGSLDEAGIAATLAHGAIDPFSGTADPSFGVDTIESPYHAWIADLMGRLAKGYCVAAATERHL”, which “soluble on expression in E. coli” value is on record?
Answer: not soluble

Question: For “MDDDDTFTCRIQYINDADPFATTSSSYLEPMRPVTFKFRLHECISDQLQDVIRTLRAPHKAGDSSLQVYRGLEGGGGELHTYLDNDMTLTDQQEELDILKADTRRCSLVLRTQTSLRVKTIIDKLLNCSGRDQRRALFSLKQIFQDDQDLVHEFVQNQGLDCMIRLGRTADQNHQNYILRALGQLMLYVDGMNGIIAHNGTIQWLYELLDSPFRLVVKTALKLLLVFIEYNDNNALLVLTAIQTVDKSKGQADWSGLMKVLTEKDSPDAETLVYGMTVVNKALHGIPDRVVILEPLHEFHPQFPQQFLHGNHQSGRIFNRLHLLQLITTISGLFAAKIFRRRFSWFRKIKRTRFRKKPTRVKVKAPPPSFPTLFSPTESKTMDFSEVAPQEPEPEKVAPPPPRAKIEDTGSGNSFADMLQKRAARSAEANRGTFEKKESEAEMQWKKAAENLEKRPLIINDLDFSQFHGVEYQQDPLQLARMAKMKEMAENGMRGGPVGVGVPPPPPPPSAIPLPPRLQGGIPPPPPLGIIPPPPPPGNLLMNGINRGDISPAANKGVLKLHWKPATVEQPDGIPSLKQKGSFWNTVDGAVPTFDAKKIVQLFETKKEKEAPVKKVAETKTQTLSVLPLKRSQAINIGLTKLPPINVIPAAIMKFDSLVLNKDGIEKILKTMMPSPKEIEEIEIKAAENPEMTLGNAEQLLLKLSQIPCLLERLRLWLFTLDYKNSEKDIAEPLMDMQLAMKEMEESRTFKVAMGMLLAIGNSLSGTDIKGFYLDYLTKASEVKDPVYKHTLTYHLAEYMVEHFSEGTDLYSEFGAVARSARVDYKELLDNLIRLEKDCKSSWECLATINVAQRIHQLKAIYTVTKNRWHSFLLYFGYSVDEIPNQTPNDVFKMVTEFSLEYRTTRDKILQQRKRLAEKRERNKTRGKIWALEGSSAEGGAGDAAPLRRRNHGPGTVAPVQNSQQRHDDMSKMLASMADDNNSLRRRPAGSNGVNGRNFGGSVKDLVDTESPEDEILNGLVKAATLQTDPRDQRRRARQFNRKSLRRTRTLKMVDGQLETNY”, which “soluble on expression in E. coli” value is on record?
Answer: not soluble

Question: For “MPNQVLFCITKMRYEEKRIYHYLEESGLSIKIMLDSSNLDEVVAHNSDYCLCIVRVMSQHRAFRIAEYMEALGIPTLNSSRAIQICADKAIQALILANRDVIKQPHFSILRNYEDLSNFNGKMVVKPVSSSWGRGISLIENEDALTTWKISHQELDIQNQNLPYLIQEFIDKPNYDVRIVIINTKPVVAFKRVSANNWKTNTHLGATVVPIVIDDSINKIVTEIIKVVGPGIYGLDLMKNRQNEWIFCEINQNPEFAHSWKIHHVDVAEKIAQYVSSKVKVGQKNASTHLEHHHHHH”, which “soluble on expression in E. coli” value is on record?
Answer: not soluble

Question: Which “soluble on expression in E. coli” value does the source give for “MSDASLKTYQKQWAYQKYWVMAHSQQHYNALRELFKGNQWSEEKVLTFHCLIEEAQAIPPTVKSLRTAYQHVWGYFKKVASQEEKDHFKDLDAQLETKSEEMLCFLQEMTAHYQPSYLLSCRLITKGP” here?
Answer: not soluble

Question: With “AINQANRSVCITTPYFVPSADLLATLKMTAQRGIKVDIIIPKKNDSLMVQWASRAFYGELLEAGVQIHEFDGGLLHTKSVVIDQQFCLVGTVNLDMRSLWLNFELTLAVDDLEFTQQMHWLQQQYIDQSHSVVYAEWEQRPWYNRFLERVFYLFNPLL” as the sequence, how does the “soluble on expression in E. coli” value read?
Answer: not soluble

Question: Which “soluble on expression in E. coli” value does the source give for “MAHHHHHHMGTLEAQTQGPGSMNIDAISIGSNPPEDVNVIIEVPVGGQPIKYEMDKKAGALIVDRFLYTPMTYPGNYGFVPHTLSEDGDPIDVLVCNTRPLIPGCVINVRPIGVLVMEDNSGKDEKIIAVPSPHLTRRYEKIHDYTDMPEITLKQIAHFFEHYKDLEPGKWVKIGDWGDEDYARKFIVEAIERAKGK” here?
Answer: soluble

Question: Which “soluble on expression in E. coli” value does the source give for “MANDGGAKLSKNLLRMKFMQRGLDAEVKKQLDEEEKRIISDEHWFLDLPELKAKENHIIEERSFVPCEDLVYGRMSFKGFNPDVEKLMLLMNAPREEEDEEEEDESMNKMETDITDEEMAKRYQSLVESMRKKFAKKRDRSAVSNKEDVNCNVTDDIRPKRAFMKPQD” here?
Answer: soluble

Question: With “MYLTLQEWNARQRRPRSLETVRRWVRESRIFPPPVKDGREYLFHESAVKVDLNRPVTGSLLKRIRNGKKAKS” as the sequence, how does the “soluble on expression in E. coli” value read?
Answer: soluble

Question: Which “soluble on expression in E. coli” value does the source give for “MAHHHHHHMIKCLKNNINIWKRVRRNVSYGYYNININEKIHKYFDNIDKKRNIKYISDCKSCKECVDEIKNGNYNLLKDFNMKMIGLDIEGYKIGKYGIVSIIQICYEDIYIFDIYKCDNVYLFINYIKDILECDDIIKVTHDCREDCSILYNQYNIHLKNILDTQVAYNLLLKNNNNYTNTYQISYDDLLKKYLFINNNHKIYFHKMITLDNYIYLKRPIMKELISYAIQDVIYLKPLILCILDKFIIKQKKKEEQEKNKYVNDKQNNKIKQEKFDKTSNTLQSKGNISSFNNQDLYHTKEIIQDIILHSKKYVNYQFLNSHIKDEKELQKGMILEGMVVSCNNTKMYLKLNMRKRGVILNYVQNKYEIGDIVKAVIVNFTRNDYINLGLYDEKILTLDAQKYIPREEVLQNIQKFLLNEEKI” here?
Answer: not soluble

Question: For “MAVTKSSSLLIVGAGTWGTSTALHLARRGYTNVTVLDPYPVPSAISAGNDVNKVISSGQYSNNKDEIEVNEILAEEAFNGWKNDPLFKPYYHDTGLLMSACSQEGLDRLGVRVRPGEDPNLVELTRPEQFRKLAPEGVLQGDFPGWKGYFARSGAGWAHARNALVAAAREAQRMGVKFVTGTPQGRVVTLIFENNDVKGAVTADGKIWRAERTFLCAGASAGQFLDFKNQLRPTAWTLVHIALKPEERALYKNIPVIFNIERGFFFEPDEERGEIKICDEHPGYTNMVQSADGTMMSIPFEKTQIPKEAETRVRALLKETMPQLADRPFSFARICWCADTANREFLIDRHPQYHSLVLGCGASGRGFKYLPSIGNLIVDAMEGKVPQKIHELIKWNPDIAANRNWRDTLGRFGGPNRVMDFHDVKEWTNVQYRDISKL”, which “soluble on expression in E. coli” value is on record?
Answer: soluble

Question: For “MSQLLKLKSQYDDECTVTRHYEGKGRNAGRLGAVGCKNRHGEFRIGSGFKDKDRDNPPKIGTLITYRYRGFTRKGTPKFATFVRVRTLEHHHHHH”, which “soluble on expression in E. coli” value is on record?
Answer: not soluble

Question: With “MSAIEVTNLVKKFHGQTVLHGIDLEVKPGEVVAIIGPSGSGKTTLLRCINLLEQPEAGTIKVGDIIIDTARPFSQQKGLIRQLRQHVGFVFQSFNLFPHRTVLENIIEGPVIVKGEPKAEATALARELLAKVGLAGKESRYPRRLSGGQQQRVAIARALAMRPEVILFDEPTSALDPELVGEVLNTIRQLAQEKRTMVIVTHEMSFARDVADRAIFMDQGQIVEQGPAKTLFADPQHPRTRQFLEKFLVK” as the sequence, how does the “soluble on expression in E. coli” value read?
Answer: not soluble

Question: With “MGSDKIHHHHHHMDIIDYLPQKMKAEAEAYMPCGLEEIRVRAGKQVQYMFAGGCRAGVYISHSDIEEMINYLSGYSFHAIAPQLAAGYFTVEGGHRVGIAGQMGCDGGKVTAVSEIASLNIRIAHQIRDVAMPLMPYIRDENSIYNTLVISRPGEGKTTFLRDCIRILSDGCDGKNALKVSVVDERSEIAACYLGVAQNDIGNSSDVLDNCPKSLGMRMLLRSMSPDVIAVDELGGEGDIEALNQLVSCGIRILGSVHGTNADDLRRKILPHAIERFVFIDHDEKGVRRYSIYDEAYRLLYSTVCGIGADKRLQQKKKGRYSDAV” as the sequence, how does the “soluble on expression in E. coli” value read?
Answer: not soluble

Question: Which “soluble on expression in E. coli” value does the source give for “MFKVNEYFDGTVKSIAFSQAEGQATIGVMAAGEYEFGTAQREIMHVISGELNVKLPDSTDWETFSTGSQFNVPANSKFQLKVSVDTAYLCEYR” here?
Answer: not soluble

Question: With “FEAQKAKANKAVDGGGGSLVPRGSGGGGSERHFVYQFMGECYFTNGTQRIRYVTRYIYNREEYVRYDSDVGEHRAVTELGRPDAEYWNSQPEILERTRAELDTVCRHNYEGPETHTSLRRLEQPNVVISLSRTEALNHHNTLVCSVTDFYPAKIKVRWFRNGQEETVGVSSTQLIRNGDWTFQVLVMLEMTPRRGEVYTCHVEHPSLKSPITVEWKA” as the sequence, how does the “soluble on expression in E. coli” value read?
Answer: soluble

Question: With “MIAVIFEVWPAEGEKQHYLDIAAGLRAELETIDGFLSIERFQSISNPEKMLSLSFFRDEQAVRAWRNTLPHRTAQALGRSGVFSDYRLRIAHVIRDYGLLEREEAPADSRDAHPVEGSSLG” as the sequence, how does the “soluble on expression in E. coli” value read?
Answer: not soluble

Question: Which “soluble on expression in E. coli” value does the source give for “ADQPSPTWGIDRIDQRNLPLDNNYHTDYDGSGVTAFVIDTGVLNTHNEFGGRASSGYDFIDNDYDATDCNGHGTHVAGTIGGSTYGVAKNVNVVGVRVLNCSGSGSNSGVIAGINWVKNNASGPAVANMSLGGGASQATDDAVNAAVAAGITFVVAAGNDNSNACNYSPARAADAITVGSTTSNDSRSSFSNYGTCLDIYAPGSSITSSWYTSNSATNTISGTSMASPHVAGVAALYLDENPNLSPAQVTNLLKTRATADKVTDAKTGSPNKLLFSLA” here?
Answer: soluble

Question: Which “soluble on expression in E. coli” value does the source give for “MGSSHHHHHHSSGLVPRGSHMAASTVAGELGLSITGLGVQYPPYSLGPDAIDILSKRYHPESPAMKKVLAINRYTGIDQRSSIGNPDHPLVNKPNPPTVKELHEVFMSDGVPLAVEASRKAMAEARLVPAQITHMVSTTCTDSANPGYDHYVAKELGLSDRLEKVLLHGIGCSGGLAALRTAANLCLGHTARGKPARILVLALEVSTTMVRSELESIDALQETRIGIALFSDCASAVILSNGIGEAPGKPAIYDLLGWENRVIPDSEHDLGFDVDPMGWKVVLSPRVPVLAKASLQPTYADLLSSLQDQLPSSYQKPADFDWAMHPGGATILSGAESAMGLTPEHMRASYDRYINHGNSSSATIFSVLNRLREKDMDALAPGGKVKEYVVGCAFGPGINVEMCMLKRRMNAPARTTTGLDTPPETDDSEGPGPGSSAGSDDGESIEGGEKEEKFINEALDNVELD” here?
Answer: soluble

Question: For “MGSDKIHHHHHHMKPIKEIADQLELKDDILYPYGHYIAKIDHRFLKSLENHEDGKLILVTAVTPTPAGEGKTTTSIGLSMSLNRIGKKSIVTLREPSLGPTLGLKGGATGGGRSRVLPSDEINLHFTGDMHAVASAHNLLAAVLDSHIKHGNELKIDITRVFWKRTMDMNDRALRSIVIGLGGSANGFPREDSFIITAASEVMAILALSENMKDLKERLGKIIVALDADRKIVRISDLGIQGAMAVLLKDAINPNLVQTTEGTPALIHCGPFANIAHGTNSIIATKMAMKLSEYTVTEAGFGADLGAEKFIDFVSRVGGFYPNAAVLVATVRALKYHGGANLKNIHEENLEALKEGFKNLRVHVENLRKFNLPVVVALNRFSTDTEKEIAYVVKECEKLGVRVAVSEVFKKGSEGGVELAKAVAEAAKDVEPAYLYEMNDPVEKKIEILAKEIYRAGRVEFSDTAKNALKFIKKHGFDELPVIVAKTPKSISHDPSLRGAPEGYTFVVSDLFVSAGAGFVVALSGDINLMPGLPKKPNALNMDVDDSGNIVGVS”, which “soluble on expression in E. coli” value is on record?
Answer: not soluble
